Columns and labels:
plasmid DNA = experiment: DNA retardation assay (agarose gel electrophoresis); format: binding
Procedure: This assay qualitatively assesses the ability of a polypeptide or polycation to bind to DNA and thus to retard its migration (by decreasing its charge/mass ratio) through an agarose gel under electrophoresis. For a range of N/P ratios, polypeptide was added to 0.1 μg of plasmid DNA made up to 20 μl with either HEPES-buffered saline (HBS, 150 mM NaCl, 29 mM HEPES, pH 7.3) or 5% glucose. The mixtures were vortexed and incubated at room temperature for 30 minutes before being subjected to electrophoresis in a 0.8–1.0% Tris-borate-EDTA agarose gel stained with ethidium bromide for visualization under ultraviolet light.

[1] = system: PC12 (TrkA and p75^NTR positive) cells; experiment: Gene delivery in vitro (pCAGluc luciferase reporter), PC12 cells; format: cell-based, rat
Procedure: (§1) A PC12 (rat pheochromocytoma) cell line was obtained from ATCC (American Type Culture Collection, Manassas, Va., USA) and cultured in RPMI-1640 medium supplemented with 10% fetal bovine serum (FBS) and 5% horse serum. PC12 cells are known to express TrkA and p75^NTR receptors. A COS7 (African green monkey kidney fibroblast) cell line was obtained from ATCC and cultured in Dulbecco's modified Eagle's medium (DMEM) supplemented with 10% fetal bovine serum, 50 U/ml penicillin, and 50 μg/ml streptomycin. The cells were maintained in a 37° C., 5% CO2, humidified incubator.
(§2) To determine the transfection efficiencies of our nucleic acid delivery systems, we employ a reporter plasmid, pCAGluc (a gift from Yoshiharu Matsuura, National Institute of Infectious Diseases, Tokyo, Japan), encoding firefly luciferase under the control of the composite promoter, CAG. CAG comprises the chicken β-actin promoter and the cytomegalovirus immediate early enhancer.
TrkA-targeting gene delivery complexes were tested for transfection efficiency in vitro in PC12 (TrkA and p75^NTR positive) cells and COS7 (neurotrophin receptor negative) cells. The cells were grown to 50–70% confluency in microplate wells (24-, 48-, or 96-well plates). The gene delivery complexes were prepared according to specifications presented for each example. Transfection was accomplished by replacing the serum-enriched medium with half the usual volume of reduced-serum medium, Opti-MEM (Invitrogen), containing the gene delivery complexes. Where specifically mentioned, 100 μM of chloroquine was also added to help the complexes escape from endosomes. After four hours of incubation, the cells were restored to the normal medium volume and serum concentration, either by topping up with medium containing twice the usual serum concentration (RPMI-1640 with 20% FBS and 10% horse serum for PC12) or by completely replacing the medium.
One to two days after transfection, the cell culture medium was removed and the cells were rinsed in phosphate-buffered saline (PBS). Enough Reporter Lysis Buffer (Promega, Wisconsin, Md., USA) to cover the bottom surface was added to each well (50 μl/well for 48-well plates). After one freeze-thaw cycle, the lysates were tested for luciferase activity using the Luciferase Assay System (Promega) and a single-tube luminometer (Berthold Lumat L B 9507, Bad Wildbad, Germany). The total protein concentration of each lysate was determined using the DC Protein assay (Bio-Rad, Hercules, Calif., USA). The results were expressed in relative light units (RLU) per milligram of total protein.

[2] = system: COS7 (neurotrophin receptor negative) cells; experiment: Gene delivery in vitro (pCAGluc luciferase reporter), COS7 cells; format: cell-based, African green monkey; conditions: triple complexes with protamine, 0.1 μg pCAGluc/well
Procedure: as §1, §2
TrkA-targeting gene delivery complexes were tested for transfection efficiency in vitro in PC12 (TrkA and p75^NTR positive) cells and COS7 (neurotrophin receptor negative) cells. […]
One to two days after transfection, the cell culture medium was removed and the cells were rinsed in phosphate-buffered saline (PBS). […] The total protein concentration of each lysate was determined using the DC Protein assay (Bio-Rad, Hercules, Calif., USA). […]

[3] = triple complexes with protamine (2 μg per μg DNA), 0.1 μg pCAGluc/well

B1: DsbC-NL4-10K: chimeric recombinant protein: NL4-10K attached to the C-terminus of DsbC, an E. coli disulfide bond isomerase (protein)
chain: MKKGFMLFTLLAAFSGFAQADDAAIQQTLAKMGIKSSDIQPAPVAGMKTVLTNSGVLYITDDGKHIIQGPMYDVSGTAPVNVTNKMLLKQLNALEKEMIVYKAPQEKHVITVFTDITCGYCHKLHEQMADYNALGITVRYLAFPRQGLDSDAEKEMKAIWCAKDKNKAFDDVMAGKSVAPASCDVDIADHYALGVQLGVSGTPAVVLSNGTLVPGYQPPKEMKEFLDEHQKMTSGKGSTSGSGHHHHHHSAGLVPRGSCTTTHTFVKALTMDGKQAAWRFIRIDTACKKKKKKKKKK
modifications: DsbC-NL4-10K
notes: chimeric recombinant protein: NL4-10K attached to the C-terminus of DsbC, an E. coli disulfide bond isomerase
Plasmid DNA
  DNA binding / retardation of DNA migration (in words): binds to DNA but cannot fully condense it
[1]; 30 minutes before transfection, compared to bovine serum albumin pre-treatment
  effect of pre-treatment with free protein on DsbC-NL4-10K/DNA/PEI600 transfection: greatly reduced the transfection efficiency
[1]; [3]
  N/P ratio of maximum transfection efficiency: 1 N/P ratio
  protein/DNA ratio of maximum transfection efficiency: 0.3 nmol/µg
[2]
  effect on protamine-mediated gene delivery: did not improve gene delivery

— patent US7205387B2, “Recombinant polypeptide useful for neurotrophin receptor mediated gene delivery and as neurotrophin agonist” (Agency for Science, Technology and Research, priority 2003, dated 2007)
